Reference: article PMC9992173, “Mapping of the extracellular RBP4 ligand binding domain on the RBPR2 receptor for Vitamin A transport” (Frontiers in Cell and Developmental Biology, 2023)

Experiments:
[1] = molecular target: Recombinant mouse RBP4 with 6XHis Tag (mouse) (UniProt Q00724); experiment: SPR; mouse RBP4 amine-coupled to a CM5 chip (target 1,200 RU), Biacore S200; peptides as analytes, 0.8-26.6 uM; running buffer PBST (0.05% Tween20); 25 C; contact 120 s, dissociation 300 s; Kd from the site-specific binding fit Y=(Bmax*X)/(Kd+X)
RBP4 = RBP4 (UniProt P02753); details: cited from earlier work

Substance	Kd [1] [µM]	Kd (RBP4) [µM]
mouse RBPR2-S294A mutant peptide (from UniProt Q9DBN1 280-321)	89.3	–
mouse RBPR2-Y295P mutant peptide (from UniProt Q9DBN1 280-321)	34.9	–
mouse RBPR2-L296S mutant peptide (from UniProt Q9DBN1 280-321)	21.3	–
STRA6 (from UniProt Q9BX79)	–	22.4
